Experimental data taken from PMC10688334, “Toward the understanding of DSG2 and CD46 interaction with HAdV-11 fiber, a super-complex analysis” (Journal of Virology, 2023).

B1: recombinant CD46 SCR1-SCR2 domains (domain or fragment, human, UniProt P15529 35-160, looked up)
chain: CEEPPTFEAMELIGKPKPYYEIGERVDYKCKKGYFYIPPLATHTICDRNHTWLPVSDDACYRETCPYIRDPLNGQAVPANGTYEFGYQMHFICNEGYYLIGEEILYCELKGSVAIWSGKPPICEKV
notes: hCD46, the two first extracellular domains (SCR1, SCR2), residues C35-V160 of Swiss-Prot P15529; gene synthesised by GenScript; Cloned in the same vector pHL-sec as rDSG2 (secretion signal, C-terminal His6); also called rCD46; soluble rCD46; source: HEK293 F, transiently transfected, secreted, purified from supernatant (His GraviTrap, Superdex 200)
B2: recombinant DSG2 EC2-EC3 extracellular domains (domain or fragment, human, UniProt Q14126 149-386, looked up)
chain: VLDINDNEPVFTQDVFVGSVEELSAAHTLVMKINATDADEPNTLNSKISYRIVSLEPAYPPVFYLNKDTGEIYTTSVTLDREEHSSYTLTVEARDGNGEVTDKPVKQAQVQIRILDVNDNIPVVENKVLEGMVEENQVNVEVTRIKVFDADEIGSDNWLANFTFASGNEGGYFHIETDAQTNEGIVTLIKEVDYEEMKNLDFSVIVANKAAFHKSIRSKYKPTPIPIKVKVKNVKEGI
notes: desmoglein 2 (DSG2), human, EC2-EC3 domains, residues V149-I386 of Swiss-Prot Q14126.2; Cloned AgeI/KpnI in pHL-sec, which supplies a secretion signal and the C-terminal His6; also called rDSG2; soluble rDSG2; source: HEK293 F, transiently transfected, secreted, purified from supernatant (His GraviTrap, Superdex 200)
B3: human HAdV-11 fiber knob, wild type (domain or fragment)
chain: DDNINTLWTGVNPTEANCQIMNSSESNDCKLILTLVKTGALVTAFVYVIGVSNNFNMLTTHRNINFTAELFFDSTGNLLTRLSSLKTPLNHKSGQNMATGAITNAKGFMPSTTAYPFNDNSREKENYIYGTCYYTASDRTAFPIDISVMLNRRAINDETSYCIRITWSWNTGDAPEVQTSATTLVTSPFTFYYIREDD
notes: HAdV-11 fiber protein, knob, residues D128 to D325 of Swiss-Prot P35774; gene synthesised by GenScript; Trimeric form purified; amine-coupled to the biosensor in the kinetic BLI; also called HAd11K; HAd11 knob; not shown: His6, N-terminal, kept

Columns and labels:
[1] = target: B3; assay: cryo-EM structure; SEC fraction of HAd11K/rDSG2/rCD46 super-complex (rDSG2:rCD46 3:1); conditions: both partners purified
[2] = target: B3; assay: BLI; HAd11K (WT or D265A), 100 µg/mL in 10 mM sodium acetate pH 4, amine-coupled to AR2G biosensor; rDSG2 or rCD46 0.7-10.8 µM in HBS-P (10 mM HEPES, 145 mM NaCl, 0.005% P20, pH 7.4) with 3 mM CaCl2; room temperature; association 180 s, dissociation 120 s; global fit; conditions: both partners purified
[3] = target: B2; assay: as above; conditions: both partners purified
[4] = target: the molecule itself; assay: cryo-EM structure; HAd11K in complex with rDSG2; two populations (one or two rDSG2 per knob trimer)

With B1 the “stoichiometry N” value [1] was 1, the Kd [2] was 243 nM and the koff [2] was 0.005 s⁻¹. The kon [2] was 22800 M⁻¹ s⁻¹.

In the case of B2, the “stoichiometry N” value [1] is reported as 1.

Work on B3 yielded a Kd [3] of 2900 nM, a koff [3] of 0.114 s⁻¹ and a kon [3] of 39400 M⁻¹ s⁻¹. For the same binder, the “stoichiometry N” value [4] was 3.
